In PMC9770967, “Native holdup (nHU) to measure binding affinities from cell extracts” (Science Advances, 2022):

Biological target: biotinylated PDZ-binding motif (PBM) peptide of diacylglycerol kinase zeta (DGKZ)
Experiment: native holdup (nHU) with Western blot; titration; biotinylated DGKZ PBM peptide on streptavidin resin as bait, mixed with biotin-saturated control resin at constant resin/analyte ratio; total Jurkat extract (2 mg/ml) as analyte; 4°C, 2 hours; prey depletion in the supernatant read by Western blot; apparent constants; three replicates

- pKapp (negative logarithm of the apparent dissociation constant): 6.4 pKapp
Substance: endogenous full-length Scribble (SCRIB) (from UniProt Q14160 1-1655) (natural protein)
